Assay results as given in US11124785B2, “Rothia subtilisins, S8A family proteases, as therapeutic enzymes for application in gluten intolerance disorders” (TRUSTEES OF BOSTON UNIVERSITY, priority 2016, dated 2021).

How the values were obtained:
[1] = literature reference; cited from earlier work
[2] = system: R. mucilaginosa enzyme preparation (Rmep); assay: Inhibitor profile of Rmep (Suc-AAPF-pNA hydrolysis); format: biochemical, Rothia mucilaginosa; conditions: Eglin C 1.2 μM; Suc-AAPF-pNA
Experimental: Inhibitors AEBSF, Aprotinin, E-64, EDTA, PMSF and Eglin C were tested at final concentrations of 10 mM, 0.08 mM, 0.1 mM, 1.5 mM, 1 mM, and 0.06 μM, respectively. Rmep was added at a final concentration of 5.7 μg/ml. The percent inhibition was determined from the ratio of the initial velocities of hydrolysis of Suc-AAPF-pNA (SEQ ID NO: 4) in the absence and presence of inhibitor.
(§1) Hydrolysis of paranitroanilide-derivatized substrates—Paranitroanilide (pNA)-derivatized tripeptide substrates were chemically synthesized at >90% purity (21st Century Biochemicals, Marlborough, Mass.). The substrates obtained were Z-YPQ-pNA, Z-QQP-pNA, Z-LPY-pNA, Z-PFP-pNA, Z-PPF-pNA, where Z=benzyloxycarbonyl, Y=tyrosine, P=proline, Q=glutamine, L=leucine, and F=phenylalanine Suc-AAPF-pNA (SEQ ID NO: 4) was obtained from Sigma, where Suc=N-succinyl and A=alanine. The peptides were dissolved in 75-100% DMSO at 10 mM, and were used at a final concentration of 200 μM in 50 mM TrisHCl pH 8.0. Purified Rothia enzyme or subtilisin A from Bacillus licheniformis (Sigma) were tested at final concentrations of 1 μg/ml. Some experiments were conducted in the presence of inhibitors 4-(2-Aminoethyl) benzenesulfonyl fluoride (AEBSF), Aprotinin, E-64, EDTA, phenylmethanesulfonyl fluoride (PMSF) and Eglin C, which were tested at final concentrations of 10 mM, 0.08 mM, 0.1 mM, 1.5 mM, 1 mM, and 0.06-1.2 μM, respectively. Enzymes were preincubated with the inhibitors for 20 min before adding Suc-AAPF-pNA (SEQ ID NO: 4). Substrate hydrolysis was monitored for 10 h at 405 nm using a Genios microtiter plate reader (Tecan, Männedorf, Switzerland) in the kinetic mode at 37° C.

subtilisin A = target: T1, subtilisin A (Bacillus licheniformis, UniProt P00780); assay: Inhibition of subtilisin A by Eglin C; format: biochemical; conditions: Eglin C 1.2 μM; Suc-AAPF-pNA
T1 construct: purchased Sigma
Experimental: as §1

casein = assay: Casein zymography of R. aeria cell proteins; format: biochemical; conditions: excised bands 1-4, R. aeria cells, 1% casein
Experimental: Bands 1-4 were excised and subjected to mass spectrometric analysis of the amino acid sequences and identification of the protein. The protein was identified as BAV86562.1 from Rothia aeria.
SDS-PAGE and casein zymography—The four cell pellets were resuspended each in 200 μl zymogram sample buffer^2. To separate the proteins, the samples were applied to a non-reducing (no DTT or β-mercaptoethanol-containing) 6% SDS-PAGE gel of 16 cm×20 cm×0.15 cm, using a protean II xi cell system (Bio-Rad, Hercules, Calif.). The composition of this gel was the same as that of previously published 6% gliadin zymogram gels but without incorporation of gliadin^2. After electrophoresis at a constant voltage of 120V at 4° C., the gel was divided in two halves (“A-gel” and “B-gel”). One-half (“A-gel”) was stained with 0.1% Coomassie Brilliant Blue in 40% (v/v) methanol/10% (v/v) acetic acid. The other half (“B-gel”) was developed as a zymogram gel^3. (See FIGS. 12A and 12B). For this, the B-gel was washed twice for 30 min in buffer containing 2.5% Triton X-100 (renaturing buffer; Life Technologies, Carlsbad, Calif.), followed by washing twice for 1 h in buffer containing 20 mM Tris-HCl, pH 7.5 (developing buffer; Life Technologies, Carlsbad, Calif.). The B-gel was then incubated in developing buffer supplemented with 1% casein (Sigma, St. Louis, Mo.) at 37° C. for 1.5 h. […]

T1 sequence (P00780 106-379): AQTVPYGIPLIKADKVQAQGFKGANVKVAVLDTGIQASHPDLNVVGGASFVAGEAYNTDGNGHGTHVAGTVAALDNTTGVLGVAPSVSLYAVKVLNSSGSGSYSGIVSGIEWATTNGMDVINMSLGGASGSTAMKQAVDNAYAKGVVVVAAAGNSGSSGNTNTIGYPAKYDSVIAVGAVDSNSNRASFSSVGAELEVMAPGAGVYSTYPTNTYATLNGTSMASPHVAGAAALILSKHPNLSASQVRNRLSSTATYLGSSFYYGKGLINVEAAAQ

B1: BAV86562.1: Rothia aeria protein annotated glycerol-3-phosphate ABC transporter, belongs to the subtilisin family (peptidase S8) (protein, listed as Rothia aeria)
chain: MAITAGLPATAAPAGDPDTPVAQDIARNSREHAVLSDSMKKAEGNIPVFVQFKGKGAYEQTQSPAVLANKQAPTNKQAEVQAIKTQVQSQAQAAAQSTGAKTLYTTHNIMRGVALQGDAAQIRALANNPEVERITPIVPKKKQNAGSVVDTGAAENWARENSGYTGKDVKIAVVDSGIDYTHADFGGPGTVEAFNKATKLTEMPAADSGLYDAKKYIGGYDLVGDSYDGTNQTAPDNNPIDCSAGGHGTHVAGTAAGYGVNQDGTTFRGDYSKLTAEQLNQMKIGPGAAPEAQLYSFRVFGCTGTTGVVVQALDRTLDPNGDGDFSDRANIVNLSIGGEFSPPDDADAYAVESLNRQGVLAVVSAGNATDYYGRGDTYSDSGQPANAVSALTVANSIGSSYAVDSMEIQAPANVAGKVPGDYTVSYTYTGAKPEALTGTVVTPSESNKFGCEAFSAEDAAKIKDKWVFLEWANADGSLPCGSKVRFDNVEKAGGKGVVLSSEEEKPALPIGGNESIPGFRVAKSASAKVREAAANGELKVRLGTDLKESLRVPSNKKDQLTASSARGYHGTYGYTKPDVAAPGNNISSARVGTGTDGISYTGTSMSAPFAAGVAAQVLQANQSYGPTQLKAAIMNSANHDVRTADGNVYAVDRVGSGRIDAKAAAETKVLLYNADRPAQVSQTFGVLEYAVNEGKQTLTREMTVENFDSHTHTYNISYAGSTDMPGVEFSLPSNITVNPGEKKNFTVTITIDPAAMEKTMDPAMEKTHNSVDPYGDGTELVPEQYRQFIASESGRILLTEGAATLRAPIHAAPKPASAMKVEGSSVEIPAGEHQANLKLTGTELNQRGYKSLLGAFEHGASIERTSPVKLDVSSNAKANMQHVGAASTAPALKASGGNPNDGLLAFGISTWANWDVVSTENTFTVNIDTDGNNRADYMLVTDRAKGIDFPIVRLYGYKNGNLEQIAYYPLNNAWGDTDTNMMDSNALVMAVPLKDLGLSAEKTKDIKYSVSATTQYAWTNVSETGWINYRPFDPKLWFSGTAATVPGFFADAPSSELVAHRAEGATDVKALFLHMHNTTGDLSGLNGAAGNRAQVLEVTEQQQLDPAPSRFTDVPAENQFYAEINWLAQRRITTGYPDGTFRPGENVERGAMAAYFYRLAGTPQFTAPDNPTFSDVPKSHPFYKEIEWMAARGITTGYGDGTFRPSASVNRDAMAAFFYRYANSPQFAAPAASPFKDVPANSQFYKEIAWLAEQGITKGWDDGTYRPGEPIHRDAMAAFLYRYSDKVLK
**Q.** Which “pH values down to which activity is retained” value [1] does the source give for B1 here?
**A.** ≥ 3.0

B2: Eglin C: an effective inhibitor of B. licheniformis subtilisin A (protein)
chain: TEFGSELKSFPEVVGKTVDQAREYFTLHYPQYDVYFLPEGSPVTLDLRYNRVRVFYNPGTNVVNHVPHVG
**Q.** With B2 as the molecule, how does the “inhibition of Rmep by high concentrations of Eglin C” value [2] read?
**A.** only partly inhibited

**Q.** What about the “inhibition of B. licheniformis subtilisin A by Eglin C” value (subtilisin A) of the same molecule?
**A.** effective inhibitor

B3: KGJ00122.1: peptidase S8, subtilisin from Rothia dentocariosa (protein, listed as Rothia dentocariosa)
chain: MPKNTPIRGLSRACLSATLGVTMAITAGLPATAAPAGDPDTPVAQDIARNSREHAVLSDSMKKAEGNIPVFVQFKGKGAYEQTQSPAVLANKQAPINKQAEVQAIKTQVQSQAQAAAQSTGAKTLYTTHNIMRGVALQGDAAQIRALANNPEVERITPIVPKKKQNAGSVVDTGAAENWARENSGYTGKDVKIAVVDSGIDYTHSDFGGPGTVEAFNKATKLTEMPAADSGLYDAKKYIGGYDLVGDSYDGTNQTTPDNNPIDCSAGGHGTHVAGTAAGYGVNQDGTTFRGDYSKLTAEQLNQMKIGPGAAPEAQLYSFRVFGCTGTTAVVVQALDRTLDPNGDGDFSDRANIVNLSIGGEFSPPDDADAYAVESLNRQGVLAVVSAGNATDYYGRGDTYSDSGQPANAVSALTVANSIGSSYAVDSMEIQAPANVAGKVPGDYTVSYTYTGAKPEALTGTVVTPSESNKFGCEAFSAEDAAKIKDKWVFIEWANADGSLPCGSKVRFDNVEKAGGKGVVLSSEEEKPALPIGGNESIPGFRVAKSASAKVREAAATGELKVRLGADLKESLRVPSNKKDQLTASSARGYHGTYGYTKPDVAAPGNNISSARVGTGTGGISYTGTSMSAPFAAGVAAQVLQANQSYGPTQLKAAIMNSANHDVRTADGNVYAVDRVGSGRIDAKAAAETKVLLYNADRPAQVSQTFGVLEYAVNEGKQTLTREMTVENFDSHTHTYNISYAGSTDMPGVEFSLPSNITVNPGEKKNFTVTITIDPAAMEKTMDPAMEKTHNSVDPYGDGTELVPEQYRQFIASESGRILLTEGAATLRAPIHAAPKPASAMKVEGSSVEIPAGEHQANLKLTGTELNQRGYKSLLGAFEHGASIERTSPVKLDVSSNAKANMQHVGAASTAPALKASGGNPNDGLLAFGISTWANWDVVSTENTFTVNIDTDGNNRADYMLVTDRAKGIDFPIVRLYGYKNGNLEQIAYYPLNNAWGDTDTNMMDSNALVMAVPLKDLGLSAEKTKDIKYSVSATTQYAWTNVSETGWINYRPFDPKLWFSGTAATVPGFFADAPSSELVAHRAEGATDVKALFLHMHNTTGDLSGLNGAAGNRAQVLEVTEQQQLDPAPSRFTDVPAENQFYAEINWLAQRRITTGYPDGTFRPGENVERGAMAAYFYRLAGTPQFTAPDNPTFSDVPKSHPFYKEIEWMAARGITTGYGDGTFRPSDSVNRDAMAAFFYRYANSPQFAAPAASPFKDVPANSQFYKEIAWLAEQGITKGWDDGTYRPGEPIHRDAMAAFLYRYSDKVLK
**Q.** Which “activity in the casein degradation assay (zymogram)” value (casein) does the source give for B3 here?
**A.** gluten-degrading properties
